Assay results: the DeepSol protein solubility set

assay: soluble on expression in E. coli; label from the status in PepcDB or PDB records

Row | Sequence | soluble on expression in E. coli
1 | MGHHHHHHSHMKPIATVGESYQYPPVNWAALLSPLMRLNFGEEIQQLCLEIMVTQAQSSQNAAALLGLWVTPPLIHSLSLNTKRYLLISAPLWIKHISDEQILGFVENLMVAVFKAASPLGSPELCPSALHGLSQAMKLPSPAHHLWSLLSEATGKIFDLLPNKIRRKDLELYISIAKCLLEMTDDDANRIAQVTKSNIEKAAFVKLYLVSQGRFPLVNLTDMLSVAVQHREKEVLAWMILHSLYQARIVSHANTGVLKRMEWLLELMGYMKCCLPVNILSQYGS | not soluble
2 | MGHHHHHHSHMLPVELVRHDVKKTDETSQVELMLQVDPDLFWFNGHFTGQPLLPGVAQLDWVMHYATTVLAQGWTFLSIENIKFQQPILPGKTLRLVLIWHAGKQSLTFSYSILEGDTERTASSGKIKLTPIMEDNPCQ | soluble
3 | MGHHHHHHSHMLREPGDPEKLGEFLQKDNISVHYFCLILSSKLPQRGQSNRGSMDFCLKTSKRRQPGLLGRSALCARKRELLSTARRISASETSICLVAKKGVAFHNFLESTNHFVTNIAQHRTSNMGMWGRKAASYVVKTYPNRVLRTSRARVVVKPSTTASAYRNMPTHQQSISSNVHSVTIERVSSRNAENGNPYSRQEVVPHSVCYVRIPRNPQGLLLS | not soluble
4 | MGHHHHHHSHMNGEIMDDSLKTSLITEEEDSTSEVLDEELKLQPFNSSEDSTNLVPLVVESSKPPEVDAPDKTPRIPDSEMLMDEGTSDEKGHMEEKLSLLPRKKAHLGSSDNVATMSNEERSDGGFPNSVIAEFSEEPVSENLSPNTTSSLEDQGEEGVSEPQETSTALPQSSLIEVELEDVPFSQNAGQKNQSEEQSEASSEQLDQFTQSAEKAVDSSSEEIEVEVPVVDRRNLRRKAKGHKGPAKKKAKLT | not soluble
5 | MGHHHHHHSHMNILFLQWKVKLPPQKEVITSDELMAHLGNCLLSIKPQEKSEGLQLNFQQNVDDAMTVLPKLATGLDVNVRFTGVSDFEYTPECSVFDLLGIPLYHGWLVDPQSPEAVRAVGKLSYNQLVERIITCKHSSDTNLVTEGLIAEQFPETTAAQLTYHGLCELTAAAKEGELSVFFRNNHFSTMTKHKSHLYLLVTDQGFLQEEQVVWESLHNVDGDSCFCDSDFHLRHSLGKGPGAEGGSGSPEKQLQVDQDYLIALSLQQQQPRGPLGLTDLELAQQLQQEEYQQQQAAQPVRMRTRVLSLQGRGATSGRPAGERRQRPKHESDCILL | not soluble
6 | MGHHHHHHSHMPESYWEKVSGKNIPSSLDLYPIIHNYLQEDDEILDIGCGSGKISLELASLGYSVTGIDINSEAIRLAETAARSPGLNQKTGGKAEFKVENASSLSFHDSSFDFAVMQAFLTSVPDPKERSRIIKEVFRVLKPGAYLYLVEFGQNWHLKLYRKRYLHDFPITKEEGSFLARDPETGETEFIAHHFTEKELVFLLTDCRFEIDYFRVKELETRTGNKILGFVIIAQKL | not soluble
7 | MGHHHHHHSHMPVVIKEVPSSEAAEDVMVAAPLVCSGKVLEVQVVNQTSVHVDLGSQPKENEAEPSTASSVPLQDEQEPPAYDQAPEVTLQADIEVMSTVHISSVYNDVPVTEGVVYIEQLPEQIVIPFTDQVACLKENEQSKENEQSPRVSPKSVVEKTTSGMSKKSVESVKLAQLEENAKYSSVYMEAEATALLSDTSLKGQPEVPAQLLDAEGAIKIGSEKSLHLEVEITSIVSDNTGQEESGENSVPQEMEGKPVLSGEAAEAVHSGTSVKSSSGPFPPAPEGLTAPEIEPEGEATAE | not soluble
8 | MGHHHHHHSHMQTLPVASALSSHRTGPPPISPSKRKFSMEPGDEDLDCDNDHVSKMSRIFNPHLNKTANGDCRRDPRERSRSPIERAVAPTMSLHGSHLYTSLPSLGLEQPLALTKNSLDASRPAGLSPTLTPGERQQNRPSVITCASAGARNCNLSHCPIAHSGCAAPGPASYRRPPSAATTCDPVVEEHFRRSLGKNYKEPEPAPNSVSITGSVDDHFAKALGDTWLQIKAAKDGASSSPESASRRGQPASPSAHMVSHSHSPSVVS | not soluble
9 | MGHHHHHHSHMRRAALRLCALGKGQLTPGRGLTQGPQNPKKQGIFHIHEVRDKLREIVGASTNWRDHVKAMEERKLLHSFLAKSQDGLPPRRMKDSYIEVLLPLGSEPELREKYLTVQNTVRFGRILEDLDSLGVLICYMHNKIHSAKMSPLSIVTALVDKIDMCKKSLSPEQDIKFSGHVSWVGKTSMEVKMQMFQLHGDEFCPVLDATFVMVARDSENKG | not soluble
10 | MGHHHHHHSHMSAVGTATPYLHHPGDSHSGRVSFLGAQLPPEVAAMARLLGDLDRSTFRKLLKFVVSSLQGEDCRDCCSVLGSAPTCRRAAGCLLAGMHTLLQQALRLPPTSLKPDTFRDPAPGALHPPRPGRGLGQRGIWEPAALLDSVAQQQGAWLPHVADFRWRVDVAISTSALARSLQPSVLMQLKLSDGSAYRFEVPTAKFQELRYSVALVLKEMADLEKRCERRLQD | soluble
11 | MGHHHHHHSHMSFTTRSTFSTNYRSLGSVQAPSYGARPVSSAASVYAGAGGSGSRISVSRSTSFRGGMGSGGLATGIAGGLAGMGGIQNEKETMQSLNDRLASYLDRVRSLETENRRLESKIREHLEKKGPQVRDWSHYFKIIEDLRAQIFANTVDNARIVLQIDNARLAADDFRVKYETELAMRQSVENDIHGLRKVIDDTNITRLQLETEIEALKEELLFMKKNHEEEVKGLQAQIASSGLTVEVDAPKSQDLAKIMADIRAQYDELARKNREELDKYWSQQIEESTTVVTTQSAEVGAAETTLTELRRTVQSLEIDLDSMRNLKASLENSLREVEARYALQMEQLNGILLHLESELAQTRAEGQRQAQEYEALLNIKVKLEAEIATYRRLLEDGEDFNLG | soluble
12 | MGHHHHHHSHMSNPRSLEEEKYDMSGARLALILCVTKAREGSEEDLDALEHMFRQLRFESTMKRDPTAEQFQEELEKFQQAIDSREDPVSCAFVVLMAHGREGFLKGEDGEMVKLENLFEALNNKNCQALRAKPKVYIIQACRGEQRDPGETVGGDEIVMVIKDSPQTIPTYTDALHVYSTVEGYIAYRHDQKGSCFIQTLVDVFTKRKGHILELLTEVTRRMAEAELVQEGKARKTNPEIQSTLRKRLYLQ | not soluble
13 | MGHHHHHHSHMTNTNEAKPVNVLSAEVMITTAFQDADPMGVVYHGNYFRFFEKARHEMLEKIGYSYRDMMASGYVWPIIDTRVKYVKSIPYDHKIRVEATLTEWENRMRVDYVIYDAETNVRMTKAHTMQVAVSIETEEMCFVSPRIFTDKVEAYHNA | soluble
14 | MGHHHHHHSHMTTPRSAPLYKLKSEDGQIFNVERGPMKFCAFINQKFIDHGVNDRNCERADPILVPFHSSIVQAVIEWLYHYQDNPLARRDSKIRYHDFSEWDKQFFNVESGVLFALLNASHALGVEDLMNMGCAAAAELIRGKSTEEIRKIYGIRSDEEQMEEALANGGEGTSAMTFTTDSD | soluble
15 | MGHHHHHHSHMYADEVDKDRRTFKKNFSSARGSGIDGKWKRDMFQTANRSPKQNFTTKRRAQTNFVTKAGAAAAGLATRNISTASIRGRTAPAVVREIHTGPSTLIIKNLATTVTQEDLEELFEQYEPELVQLHYGPTGESNGCADLIVPHAQVAIIQKALEGVLLDGEPIEVLEANPPKQVSVFDRIKKVSRGNDFKAKNMRVVVKSKGGFQKRGARGDF | soluble
16 | MGHHHHHHSHNEPEDSKLRFETYQLIWQQMKSENERLQEELNKNLFDNLIEFLQKSHSGFQKNSRDLGGQIKLREIPTAALVLGVNVTDHDLTFGSLTEALQNNVTPYVVSLQAKDCPDMKHFLQKLISQLMDCCVDIKSKEEESVHVTQRKTHYSMDSLSSWYMTVTQKTDP | not soluble
17 | MGHNDELIRNKSAFASEMSDAAAIVQYADKNSLVVLDELARSTSTEEGIAITYAICEKVLKLHSYTFLATHFLDIAALANYSNAIDNYHFLPQIDDNSTKKHKLLRG | not soluble
18 | MGIDPGTGSMDVLGFDDESNNVFLEESIPRDEVTRDPSLPLRIVEEASAKVGGLDAVVAPSGYGMPLKRASETAPGDICEATFIHSSDEVLGLRIVGLRRLMALFASSDLPAWFTPGVIHLPTVPAWRKVGRIDMGTADKLYTVAAALRTEVEYHGVEPEAARFIAVEAGMAYTAAVAVVGGKVVDGVGGTSGFHGFMGGGAMDGEAAYALAAVAPRFSKSLLFKGGAGWVAGVSSPVELEEKASEGGGLEALEMLGEGVVKSVATLLPSLRPEGGEVRVYVSGRLFSLGRLGSELRSRLRDFISSIGLTPRVLTIERLGSKTKEGASGAALVASGLAGGRYKWLVDHLELERSSGSIFDHLPVDEDLRRAVRLEFRSCSPLGEA | not soluble
19 | MGIDVVMTNRRGEPPPELSTLPCFPFKWEQQGEQLPLAPAALEGVTHVLNGIPPDRQGEDAVALALLPQLEKLNLHWFGYLSTTGVYGDRQGGWVDETTPVNPQNLRSQHRVRIEQVFLNANLPTHIFRLPGIYGPGEGRNPIARILKGDVQLIDKPGHYFCRIHVADIVQTLERSLAQPTPQEIYNLSDDQPSESLPVLLEAYRLLGRPAPPAIPLEAANLSPMAQSFWRESRRVRNDKIKQALGVQLRYPSYREGLRAIARELGLEHHHHHH | not soluble
20 | MGIKGDKKATSDQARLARLTLEGNSGNEEDIQFMIKTIIETTGCTQAQAEIALLDTDNNLYGAIDHILDAGDKLDSWTEQKGAKKEKKKPEEGSYNNRGFVARGRGGGTGFVDRGGRGRSNGAPRESRDNNRDNRDNKEGAAPRSTRGGFEKPYVGRGGRGGARGGYSRAVAPSSALEPDAFTADLDENQTKVDTTVTEVQPPVEESVTATVPTSSAPAPISFAAVAAAAHRKEALRKHQAQNPQPAAPPRRSLSPQPPLPSVAPVKEEPAAAPVFFEPETSHQPEKEDGFFQNESSVLAEEQTPNVSTHHDENVQSTPEPNQAWTTQLKTDLGIGLSEAPGLGLSPIPSAAPVQIIPDPGVEFVGTTAPTNIHDYSFGFVEAAPSPQLPSTESSAASISNASENIFNSSRIMPKQVEPERTSIPNGDYNLKSTSPPLSYGQSNRGLSYDTSSASYQPTDRMAPNKFNNSGPLPTQQSAQQHQPQQQQQQAPQQPVQQQQQTPPAQSQPTGHPQQHPHMMFTQQLPYAPYMNNYMNMYNPMPGVRDEQYTAALMQYGMGVDLTSLLPTAPLSQAASAQQVQSGQQRETHGLMDFNKFGSQSSRDQQPQQASNVGPPPGFQATNYMQQPNLSSLFMQQYSPAPHQFTPFMNMMPNVGSSAGGRQLYGQDDERKSYDKMSGSKPAAQQNQHSQYQHNGGNLGKYGMNKPYNWSN | not soluble
21 | MGIMPRKVLAIKNFKERFDLLPKLKGVIAEKQPDILVVVGNILKNEALEKEYERAHLARREPNRKVIHENEHYIIETLDKFFREIGELGVKTFVVPGKNDAPLKIFLRAAYEAETAYPNIRVLHEGFAGWRGEFEVIGFGGLLTEHEFEEDFVLKYPRWYVEYILKFVNELKPRRLVTIFYTPPIGEFVDRTPEDPKHHGSAVVNTIIKSLNPEVAIVGHVGKGHELVGNTIVVNPGEFEEGRYAFLDLTQHKIKLEQFS | soluble
22 | MGKALPFYLSPYPVDFWTNASFSDEEHEDAALSNSHLGRNAMVPPQGRSGPASWILRSVRDPGFAPCPPWSWIYHQFRIAWLRCVVRMDGRAPQVQTGQSTSPAKAASNATALQDQA | not soluble
23 | MGKEIQLKPKANVSSYVHFLLNYRNKFKEQQPSTYVGFKEFSRKCSEKWRSISKHEKAKYEALAKLDKARYQEEMMNYVGKRKKRRKRDPQAPRRPPSSFLLFCQDHYAQLKRENPNWSVVQVAKATGKMWSTATDLEKHPYEQRVALLRAKYFEELELYRKQCNARKKYRMSARNRCRGKRVRQS | not soluble
